B1: POMT2 (parent)
chain: LRGGGQVLLGWTLHYFPFFLMGRV
B2: SLC19A2 (parent)
chain: FASLRPSEPFLTPYLLGPDKNLTE

Variants of: B1
Test: protein stability index of a GFP-peptide fusion (GPS, HEK-293T) (PSI 1-6); higher = more stable
Conditions: c terminus: a fixed tail appended
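Also: lentivirally expressed fusions sorted by FACS into six bins by GFP to DsRed ratio, PSI derived from sequencing read proportions per bin multiplied by bin number.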

Protein stability index, by site and new letter:
G22: P 2.64, Q 1.28, C 1.58, A 3.58, L 3.83, D 3.12
T12: H 2.35, A 2.59, S 2.1, L 1.93, V 3.16, I 3.35, Y 2.7
L8: R 3.14, V 1.64, N 3, Y 3.82, A 2.97
Q6: D 1.69, F 2.24, K 2.02, L 2.48, I 2.01, P 3.06
H14: Y 3.36, F 3.28, D 4.14, P 2.43
W11: N 4.22, C 3.48, R 2.67, H 2.1, E 1.74, A 1.93, M 1.04, K 3.25, S 1.38, Q 3, Y 1.2, T 2.09
V24: Q 2.04, A 1.72, R 3.15, Y 3.27, I 2.03, C 1.83, H 3.69
G4: W 1.47, F 1.41, V 2.52, D 2.16, L 1.27, Y 2.25, M 3.71, H 3.5, K 3.19, R 1.38
F16: G 3.06, Q 2.26, T 3.4, H 3.2, E 3.44
L13: S 3.02, E 2.93, P 2.64, W 3.5, D 1.29, C 1.51
R2: Y 2.82, K 2.04, W 3.48, S 2.59, P 2.6, L 2.63, T 1.36, Q 1.79
G3: N 2.48, I 2.59, M 1.82, S 1.68, W 5.12, Y 4.15, Q 2.94, R 2.12
R23: C 2.79, D 1.88, E 3.15, T 3.19, Y 1.9, I 4.29, S 2.85, W 3.02
L20: W 2.38, F 4.18, P 5.95, S 1.7, N 3.25
F19: A 2.89, Q 4.97, W 3.22, Y 2.17, N 2.04, G 4.57, S 3.98
P17: D 4.4, F 2.59, Q 4.16, N 2.79, I 2.09, C 2.18, M 4.38, R 3.18, V 2.54, K 2.55, E 1.35, W 3.06
F18: Y 1.42, V 3.11, T 1.98, W 1.2, E 4.02, N 2.04
L9: F 2.91, C 1.75, E 1.89, N 2.66, Q 1.61, T 2.66, P 2.59, M 3.23, A 3.06, H 1.91
Y15: T 1.39, I 4.09, R 2.02, W 2.28, K 2.92, E 2.31, D 1.72
M21: A 3.45, K 2.16, S 2.79, N 1.43, W 4.41
G5: D 3.03, T 2.95, Y 3.6, I 4.58, E 3.02, N 3.2
V7: K 4.17, T 1.32, C 1.26, R 2.7, W 2.36, A 2.26, M 2.07, Y 4.03, Q 1.21, G 3.97
G10: D 3.44, Q 3.64, T 2.89, W 2.32, V 2.29, N 1.97, P 3.23, I 1.92, F 3.45, Y 3.25, S 3.85

Variants of: B2
Test: as above
Conditions: c terminus: a fixed tail appended

Protein stability index, by site and new letter:
T23: S 1.7, D 1.97, H 2.8
S3: R 1.71, D 3.05, Y 2.53, N 2.78, E 1.45
F1: Y 1.5, K 3.79, E 4.2, H 3.58, V 3.4, A 4.25, W 2.77
P9: Q 1.98, T 2.48, F 3.54, R 1.39, M 2.37, K 1.78, W 2.12
Y14: G 2.18, P 3.25, E 2.76, S 2.21, I 2.66
P18: W 1.76, M 2.06, H 2.53, C 1.98, E 2.27
N21: P 1.31, G 1.52, A 1.51, W 2.31, E 2.02, H 1.29, D 1.84, I 2.02, C 1.33
P6: K 2.13, L 1.8, A 1.12, E 1.65, M 1.36, Y 1.83
L11: V 1.61, G 2.06, E 2.88, I 1.58, F 2.63, R 1.81, M 2.18, Q 2.09
T12: W 2.17, Q 2.3
K20: F 1.62, E 1.94, C 1.18, A 2.14, P 1.92, R 1.94, D 2.1, G 2.04, L 2.1
E24: M 2.03, H 1.93, C 2.46, N 1.38, Y 2.08, S 1.94, P 2.41
D19: L 1.58, P 1.67, E 2.24, S 2.5, Y 2.89, I 1.92, G 1.75, M 2.1
G17: T 1.96, I 4.07, E 1.86, W 2.1, N 2.06, Q 2.23
L15: F 1.67, H 1.55, C 2.23, W 1.44, G 1.77, I 1.99
L4: K 1.48, D 2.76, M 1.48, N 1.74, R 2.24, E 2.65, H 1.69, W 3.5, A 1.89
R5: M 1.94, V 2.6, N 1.68, C 1.99, E 2.58, P 2.36, A 2.03, K 1.88, H 2.17, Q 2.34, F 2.32
P13: W 1.88, L 2.14, T 1.66, Q 1.94, K 2.56, D 2.28, F 2.1, I 2.91, E 1.95, R 1.68, Y 1.58
A2: C 1.51, K 2.84, D 3.64, I 1.66, V 2.5, Y 2.05, L 2.04, W 2.21, H 1.63
L16: M 1.79, V 1.79, Q 1.8, G 2.85, W 2.14, C 2.07, N 2.12, Y 1.3, I 1.51
E8: Q 1.69, C 1.68, G 1.99, M 1.88, I 2.19
L22: F 1.62, Y 1.84, P 1.86, V 1.52, S 2.1, W 1.98, C 1.96, R 1.92, A 2.1
F10: E 2.66, Q 2.44, H 2.61, D 3.28
S7: M 1.24, A 1.68, K 1.98

— the supplement of paper PMC10567573
